We go through 1 protein from paper PMC3464278, “Structural Characterization of the Complex of SecB and Metallothionein-Labeled proOmpA by Cryo-Electron Microscopy” (PLoS ONE, 2012).

This series concerns the molecule itself. As to the kind of experiment: cryo-EM structure; SecB/pOA1MTAu complex from gel filtration, vitrified on holey carbon grids, FEI Tecnai F20 at 200 kV; single particle analysis (EMAN), 19562 particles; about 20 Å; SecB crystal structure docked manually.

B1: SecB (natural protein, E. coli)
chain: MSEQNNTEMTFQIQRIYTKDISFEAPNAPHVFQKDWQPEVKLDLDTASSQLADDVYEVVLRVTVTASLGEETAFLCEVQQGGIFSIAGIEGTQMAHCLGAYCPNILFPYARECITSMVSRGTFPQLNLAPVNFDALFMNYLQQQAGEGTEEHQ
notes: SecB, molecular chaperone of the Sec pathway, E. coli; also called molecular chaperon SecB; E. coli SecB; source: prepared as described previously [26]
Consider B1, for which the binding result was “binds”.
